The values below come from paper doi:10.1101/2021.01.21.427566, “Gradual opening of Smc arms in prokaryotic condensin” (bioRxiv, 2021).

The data set concerns the molecule itself. Put plainly: EPR-DEER; MTSL-labelled single-cysteine Smc, 5 µM, mixed with ScpA and ScpB (similar trends without ScpAB); apo, or with 1 mM ATP and 10 µM dsDNA40; 50 mM Tris-HCl pH 7.5, 50 mM NaCl, 2 mM MgCl2, 40 % ethylene glycol-d6, 90 % deuterium oxide; shock-frozen, DEER traces at 50 K, Q band; spin-spin distances between the two Smc of a dimer.

B1: Smc^3S(D193C) (natural protein, B. subtilis, UniProt P51834 1-1186, looked up)
chain: MFLKRLDVIGFKSFAERISVDFVKGVTAVVGPNGSGKSNITDAIRWVLGEQSARSLRGGKMEDIIFAGSDSRKRLNLAEVTLTLDNDDHFLPIDFHEVSVTRRVYRSGESEFLINNQPSRLKDIIDLFMDSGLGKEAFSIISQGKVEEILSSKAEDRRSIFEEAAGVLKYKTRKKKAENKLFETQDNLNRVECILHELEGQVEPLKIQASIAKDYLEKKKELEHVEIALTAYDIEELHGKWSTLKEKVQMAKEEELAESSAISAKEAKIEDTRDKIQALDESVDELQQVLLVTSEELEKLEGRKEVLKERKKNAVQNQEQLEEAIVQFQQKETVLKEELSKQEAVFETLQAEVKQLRAQVKEKQQALSLHNENVEEKIEQLKSDYFELLNSQASIRNELQLLDDQMSQSAVTLQRLADNNEKHLQERHDISARKAASETEFARIEQEIHSQVGAYRDMQTKYEQKKRQYEKNESALYQAYQYVQQARSKKDMLETMQGDFSGFYQGVKEVLKAKERLGGIRGAVLELISTEQKYETAIEIALGASAQHVVTDDEQSARKAIQYLKQNSFGRATFLPLSVIRDRQLQSRDAETAARHSSFLGVASELVTFDPAYRSVIQNLLGTVLITEDLKGANELAKLLGHRYRIVTLEGDVVNPGGSMTGGAVKKKNNSLLGRSRELEDVTKRLAEMEEKTALLEQEVKTLKHSIQDMEKKLADLRETGEGLRLKQQDVKGQLYELQVAEKNINTHLELYDQEKSALSESDEERKVRKRKLEEELSAVSEKMKQLEEDIDRLTKQKQTQSSTKESLSNELTELKIAAAKKEQASKGEEDNLARLKKELTETELALKEAKEDLSFLTSEMSSSTSGEEKLEEAAKHKLNDKTKTIELIALRRDQRIKLQHGLDTYERELKEMKRLYKQKTTLLKDEEVKLGRMEVELDNLLQYLREEYSLSFEGAKEKYQLETDPEEARKRVKLIKLAIEELGTVNLGSIDEFERVNERYKFLSEQKEDLTEAKNTLFQVIEEMDEEMTKRFNDTFVQIRSHFDQVFRSLFGGGRAELRLTDPNDLLHSGVEIIAQPPGKKLQNLNLLSGGERALTAIALLFSILKVRPVPFCVLDEVEAALDEANVFRFAQYLKKYSSDTQFIVITHRKGTMEEADVLYGVTMQESGVSKVISVKLEETKEFVQ
modifications: MTSL spin label on the engineered cysteine 193
notes: Smc, Bacillus subtilis (Bsu), cysteine-lite Smc^3S background with D193C, without E1118Q; also called wild-type Smc (without E1118Q) with D193C; wt Smc; source: E. coli BL21-Gold (DE3), purified (HiTrap Blue, Heparin, gel filtration)
As to B1, the binding result is on record as “binds”.
